Data on 1 substance can be found in patent publication US20260185069.

Bounds are passed on as bounds.

Series [1] relates to T1, Dn29 large serine recombinase (Desulfotomaculum nigrificans).
T1 sequence: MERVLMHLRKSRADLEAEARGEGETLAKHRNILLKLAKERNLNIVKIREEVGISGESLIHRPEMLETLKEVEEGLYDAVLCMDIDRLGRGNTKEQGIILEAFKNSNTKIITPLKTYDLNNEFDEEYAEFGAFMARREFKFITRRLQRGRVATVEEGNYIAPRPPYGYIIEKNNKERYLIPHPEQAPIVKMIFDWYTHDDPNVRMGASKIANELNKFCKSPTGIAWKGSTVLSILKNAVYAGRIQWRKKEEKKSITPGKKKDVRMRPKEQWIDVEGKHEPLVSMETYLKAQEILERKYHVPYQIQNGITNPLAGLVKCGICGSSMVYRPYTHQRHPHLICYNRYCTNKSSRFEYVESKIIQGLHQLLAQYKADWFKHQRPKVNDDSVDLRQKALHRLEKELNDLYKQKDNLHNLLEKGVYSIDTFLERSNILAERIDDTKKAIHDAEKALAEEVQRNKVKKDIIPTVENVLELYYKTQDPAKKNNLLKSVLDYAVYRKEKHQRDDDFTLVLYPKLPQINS
Description: cell_activity. To be noted: HEK293FT, unfused LSR, UMI integration-site mapping.

Series [2] concerns the target Dn29-XTEN32-(GGSS)2-dCas9 fusion (synthetic construct) (UniProt Q99ZW2). The series is described as follows: cell_activity. As to conditions: HEK293FT, attD donor plasmid, single gRNA near attH1, ddPCR; specificity about 78% of UMIs with guide 3.

For “Dn29 attH1 pseudosite (chr10:21,130,404, NEBL intron)”, in series [1], the activity (% of integrations at site) turned out to be 30. This substance also returned an activity (% integration) in series [2] below 30.
